What is called Km is the substrate concentration at which the rate is half of its maximum.

From article PMC4932917, “Structural basis for acyl-group discrimination by human Gcn5L2” (Acta Crystallographica. Section D, Structural Biology, 2016) come the findings set out here.

Substrate in the data set: CC(=O)SCCNC(=O)CCNC(=O)[C@H](O)C(C)(C)COP(=O)(O)OP(=O)(O)OC[C@H]1O[C@@H](n2cnc3c(N)ncnc32)[C@H](O)[C@@H]1OP(=O)(O)O
The data set can be described thus: purified protein. The settings on record: acyl-CoA site of the active site.

B1: human Gcn5L2 (hsGcn5L2) (Homo sapiens) (protein)
chain: GIIEFHVIGNSLTPKANRRVLLWLVGLQNVFSHQLPRMPKEYIARLVFDPKHKTLALIKDGRVIGGICFRMFPTQGFTEIVFCAVTSNEQVKGYGTHLMNHLKEYHIKHNILYFLTYADEYAIGYFKKQGFSKDIKVPKSRYLGYIKDYEGATLMECELNPRIPYT
For the protein B1, the Michaelis constant (Km) is reported as 0.91 ± 0.09 µM.
